From patent publication US20140304847A1

Molecular target: Ku70 (endogenous full length protein of the human HEK 293 reporter cells) (UniProt P12956)
Assay: cell-based or functional assay

fold increase of homologous recombination in 293Rab-Rep#4 reporter cells against transfection without the Ku80 fragment: 2 fold
Substance: truncated Ku80 protein, residues 427-732 of mouse Ku80, expressed from pCAG-Ku80(427-732)-bpA (from UniProt P27641 427-732)
